These results are taken from publication PMC9934059, “Characterization of a glycan-binding complex of minor pilins completes the analysis of Streptococcus sanguinis type 4 pili subunits” (Proceedings of the National Academy of Sciences of the …, 2023).

Test [1] deals with 6His–PilC (Streptococcus sanguinis 2908). Description: ITC; MicroCal ITC200; average ± SD of three (mutants: 2 to 3) independent experiments. (In ITC the heat of successive injections is recorded.)
In test [2] the target is 6His–PilA (Streptococcus sanguinis 2908). Description: SEC-MALS; ÄKTA Prime, S200 10/300 GL column, Wyatt MALS detector; 6His–PilA and 6His–PilC separately and after mixing equimolar amounts. (In general: SEC sorts molecules by how far they enter the pores of the column.)
For test [3], the target named is 6His–PilC (Streptococcus sanguinis 2908). The description is as above.
Test [4] deals with 6His–PilC. Description: ITC. Conditions: parent: est. 1.0; read off a plot.
Test [5] addresses T1, PilC (Streptococcus sanguinis, UniProt A0A0B7GRV8).
T1 construct: 6His–PilCΔpilin (lacking the pilin moiety; Ig-like and lectin modules), strain 2908
Description: ITC (three independent experiments); supported by glycan microarray. The class given is binding.

Test [6] concerns the target T2, PilC (Streptococcus sanguinis, UniProt A0A0B7GRV8, K358A).
T2 construct: PilCΔpilin (lacking the pilin moiety), strain 2908
T2 sequence (A0A0B7GRV8 122-486 K358A): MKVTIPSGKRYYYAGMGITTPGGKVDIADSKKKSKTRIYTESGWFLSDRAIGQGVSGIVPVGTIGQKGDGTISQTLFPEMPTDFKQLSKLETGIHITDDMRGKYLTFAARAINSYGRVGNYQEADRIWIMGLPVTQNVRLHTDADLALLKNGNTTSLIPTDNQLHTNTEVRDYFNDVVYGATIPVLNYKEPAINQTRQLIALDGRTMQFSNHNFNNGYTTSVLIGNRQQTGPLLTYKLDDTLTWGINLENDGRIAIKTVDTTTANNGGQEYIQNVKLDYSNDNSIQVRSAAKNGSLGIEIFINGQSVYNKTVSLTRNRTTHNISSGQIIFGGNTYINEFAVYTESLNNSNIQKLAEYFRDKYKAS
Briefly: ITC of mutant, KD ratio to WT (reduced affinity). The class given is binding.

Usually Kd stands for a measure of binding affinity in units of concentration. The stoichiometry N is the number of molecules, sites or subunits per partner or assembly.

With 6His–PilA (domain or fragment), in test [1], the dissociation constant Kd was determined as 0.0238 µM. In addition, the stoichiometry N was 2 in test [2] and 1 in test [3].

Regarding 6His–PilA A68S, the ratio to parent in test [4] was determined as 0.87.

Turning to 6His–PilA K85A, the ratio to parent in test [4] is 0.98.

In the case of `CC(=O)N[C@H]1[C@H]([C@H](O)[C@H](O)CO)O[C@@](O[C@H]2[C@@H](O)[C@@H](CO)O[C@@H](O[C@H]3[C@H](O)[C@@H](O)C(O)O[C@@H]3CO)[C@@H]2O)(C(=O)O)C[C@@H]1O` (stereo partly drawn) [3′-SL, 3′-sialyllactose], the Kd in test [5] was found to be 79.1 ± 0.36 µM. In addition, in test [6], the “% of WT binding” value was 39.3 ± 1.4 % of WT binding.

`CC(=O)N[C@H]1[C@H]([C@H](O)[C@H](O)CO)O[C@@](O[C@H]2[C@@H](O)[C@@H](CO)O[C@@H](O[C@H]3[C@H](O)[C@@H](NC(C)=O)C(O)O[C@@H]3CO)[C@@H]2O)(C(=O)O)C[C@@H]1O` (stereo partly drawn) [3′-SLN, 3′-sialyl-N-acetyllactosamine] yielded a Kd in test [5] of 144 ± 7.36 µM.

As to “PilA_(T87A) (from UniProt A0A0B7GNW3 33-164) (domain or fragment)”, the percent of the wild-type (WT) binding (KD ratio to the WT) in test [1] worked out at 38.3%.
